Reference: patent US10975360B2, “Process for the modification of alkanes, fatty acids and fatty alcohols” (priority 2016, dated 2021)

Assays:
[1] = Biotransformation of tetradecanoic acid using CFE of E. coli, Tris-HCl buffer; format: biochemical; details: 5 mmol/L substrate, CFE of E. coli, Tris-HCl, 24 h
Method: (§1) Expression of genes in E. coli was performed by using ZYP-5052 auto-induction medium (Table 1) with in the case of the CYP 1 mM 5-aminolevulinic acid and 0.05 mM FeCl3 added. The CYP505E3 culture was cultivated using baffled flasks and incubated at 20° C. and 180 rpm for 24 h, while the GDH, and HLADH expressing cultures were all cultivated at 25° C. and 200 rpm for 24 h. Cultures were harvested through centrifugation (6 000×g, 10 min) and 1 g (wet weight) resuspended in 2 ml, 5 ml or 10 ml Tris-HCl, Phosphate or MOPS buffer, as indicated, (pH 8, 200 mM) containing 100 mM of glucose and glycerol. CFEs were obtained by a single passage of the suspended cells through a One Shot Cell Disrupter (Constant Systems) at 207 MPa. The soluble fraction was separated from unbroken cells by centrifugation (20 000×g, 20 min).
(§2) The biotransformation reaction mixture (BRM) consisted of CYP and GDH CFE suspensions prepared from cells in Tris-HCl buffers (1 g wet weight in 2 ml buffer) mixed in a 1:1 ratio with 0.1 mM NADPH added. Dodecanoic acid, tetradecanoic acid, hexadecanoic acid, 1-tetradecanol and 1-hexadecanol (20 μl of a 255 mM stock solution in DMSO) were added to 40 ml amber glass vials containing 1 ml BRM to give final substrate concentrations of 5 mmol·LBRM^−1. These vials were placed on an orbital shaker at 20° C., 200 rpm, oscillation amplitude 26 mm. Vials were removed after 24 h for extraction. Biotransformations were stopped by adding 170 ul of 0.5M HCl, extracted with 2×500 μl EtOAc and subjected to GC-MS analysis. A sample of δ-dodecalactone in ethyl acetate (0.1 mM) was also methylated with TMSH and subjected to GC-MS analysis.

[2] = Biotransformation of dodecanoic acid using CFE of E. coli, Tris-HCl buffer; format: biochemical; details: 5 mmol/L substrate, CFE of E. coli, Tris-HCl, 24 h
Method: as §1, §2

B1: CYP505E3: self-sufficient cytochrome P450 monooxygenase from Aspergillus terreus, SEQ ID No 1 (protein, listed as Aspergillus terreus)
chain: MIKETEQIPGPRPLPVVGNLFDMDLEHGLECLIRLADDFGPLFQITINGEKQIFATSQALVDELCDESRFHKAVMGGLEKLRMLASDGLFTAYHGERGWGIAHRILVPAFGPLRIRNMFEEMNDVAQQLCLKWARQGSSTSINITDDFTRLTLDTIALCTMNFRLNSFYNNETMHPFVKSMLYVLRESDIQSMLPGIANCIRVKARSRMSKHIQLMRNMARGIIQERRDQAEPVDDLLNTLLNGRDPVTGEGMSDDLIINNVITFLIAGHETTSGLLSFTFYYLLQNPHILERAQNEVDEVTGGERITVQHLGRLTYIDAILKESLRLMPTAPAFTVTPKKPEVLGGAWAIDAGQAVNVLLPVCLRDRSVFGPDADEFRPERMLEENFSKLPPNSWKPFGNGERSCIGRAFAWQEAQLVVAMVLQTFDLVPDDPSYKLRIKETLTIKPDGFRVRATLRRGQSATGLSQGSMSASGATSSVASPGPPAATGAQSNPAGGQRISFFYGSNSGTCKALAHRLASSLMGRGFTEQKLAALDTVVGNLPTDQPVIIVTTSYDGRPTDDAEEFVRWLESKRPVLQGVSYAVFGCGHHDWAKTFYRIPILIDDLMHKAGATRLTALGTANAAVSDLFSDLELWEETNLLPALREAFPPSNSSDVESSEPHQLQICVSKPRRVDMHRGLVEAKVTAVRTLTSPDSPEKRHVEFHVQGDTTWRPGDHVNILPVNPLSTVSRVLAYFQLAPDHSITVNSFNTQGLPSATPVSATELFSSFVELSQPATRKNLKALAMAAESKTDEQELIRLHDSYDALVRDKRVSVLDILERFPSISLPIGIFISMLPPLRLRTYSLSMAPSFKPSHGSLTFSVINEPAWSGNGQYLGVGSNYLASLTPGSLLYLSPRPAKDAFHLPADQFNTPIIMICAGSGLAPFMGFIQERMTWLKQGRPLAKGLLFFGCRGPHLDDLYYEELSEFEDAGVVEVHRAYSRAPDDVRAKGCRHVQHRLVTEAEAVRDHWGRNAIVYVCGSSNMARGVQTVLEEILGTLPPERYVAEIF
**Q.** For B1, which “products identified from tetradecanoic acid (GC-MS, methylated samples)” value [1] is on record?
**A.** 7-hydroxy tetradecanoic acid

**Q.** And the “products identified from dodecanoic acid (GC-MS, methylated samples)” value [2]?
**A.** δ-dodecalactone and the methyl ester of 5-hydroxy dodecanoic acid
